# Source: the supplement of paper PMC10567573
# B1: PCDHGA10 (parent)
# chain: FGIEIEVTDINDNAPKFQAENLDV
# Variants of: B1
# Assay: protein stability index of a GFP-peptide fusion (GPS, HEK-293T) (PSI 1-6); higher = more stable
# Conditions: c terminus: a fixed tail appended
# 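Further: lentivirally expressed fusions sorted by FACS into six bins by GFP to DsRed ratio, PSI derived from sequencing read proportions per bin multiplied by bin number.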
row,Variant,protein stability index
1,FGIEIEITDINDNAPKFQAENLDV [V7I],2.29
2,FGIEIEETDINDNAPKFQAENLDV [V7E],4.74
3,FGIEIEFTDINDNAPKFQAENLDV [V7F],2.25
4,FGIEIEGTDINDNAPKFQAENLDV [V7G],4.3
5,FGIEIIVTDINDNAPKFQAENLDV [E6I],2.05
6,FGIEINVTDINDNAPKFQAENLDV [E6N],3.02
7,FGIEIRVTDINDNAPKFQAENLDV [E6R],1.7
8,FGIEILVTDINDNAPKFQAENLDV [E6L],1.86
9,FGIEIEVTDINDNRPKFQAENLDV [A14R],2.83
10,FGIEIEVTDINDNDPKFQAENLDV [A14D],3.89
11,FGIEIEVTDINDNQPKFQAENLDV [A14Q],3.58
12,FGIEIEVTDINDNKPKFQAENLDV [A14K],3.1
13,FGIEIEVTDINDNTPKFQAENLDV [A14T],2.9
14,FGIEIEVTDINDNPPKFQAENLDV [A14P],2.69
15,FGIEIEVTDINDNYPKFQAENLDV [A14Y],1.71
16,FGIEIEVADINDNAPKFQAENLDV [T8A],2.88
17,FGIEIEVHDINDNAPKFQAENLDV [T8H],2.78
18,FGIEIEVFDINDNAPKFQAENLDV [T8F],1.68
19,FGIEIEVCDINDNAPKFQAENLDV [T8C],2.48
20,FGIEIEVQDINDNAPKFQAENLDV [T8Q],2.78
21,FGIEIEVYDINDNAPKFQAENLDV [T8Y],1.17
22,FGIEIEVDDINDNAPKFQAENLDV [T8D],3.79
23,FGIEIEVTDINDNAPKFQFENLDV [A19F],2.42
24,FGIEIEVTDINDNAPKFQNENLDV [A19N],2.82

row,Variant,protein stability index
1,FGIEIEVTDINDNAPKFQVENLDV [A19V],2.37
2,FGIEIEVTDINDNAPKFQKENLDV [A19K],3.37
3,FGIEIEVTDINDNAPKFQPENLDV [A19P],2.6
4,FGIEIEVTDINDNAPKFQMENLDV [A19M],2.53
5,FGIEIEVTDINDNAPKFQLENLDV [A19L],2
6,FGIEIEVTDINDNAPKFQCENLDV [A19C],2.59
7,FGIEIEVTDINDNAPKFQRENLDV [A19R],3
8,FGIEIEVTDINDNAPKFQIENLDV [A19I],2.26
9,FGIRIEVTDINDNAPKFQAENLDV [E4R],2.18
10,FGITIEVTDINDNAPKFQAENLDV [E4T],2.12
11,FGIHIEVTDINDNAPKFQAENLDV [E4H],2.2
12,FGIPIEVTDINDNAPKFQAENLDV [E4P],4.33
13,FGILIEVTDINDNAPKFQAENLDV [E4L],2.28
14,FGIDIEVTDINDNAPKFQAENLDV [E4D],3.44
15,FGIEIEVTDINDNARKFQAENLDV [P15R],3.36
16,FGIEIEVTDINDNAQKFQAENLDV [P15Q],3.11
17,FGIEIEVTDINDNAHKFQAENLDV [P15H],2.73
18,FGIEIEVTDINDNACKFQAENLDV [P15C],2.5
19,FGIEIEVTDINDNAWKFQAENLDV [P15W],2.05
20,FGIEIEVTDINDNANKFQAENLDV [P15N],3.6
21,FGIEIEVTDINDNAAKFQAENLDV [P15A],3.37
22,FGIEIEVTDINDNATKFQAENLDV [P15T],3.41
23,FGIEIEVTDINDNAVKFQAENLDV [P15V],2.55
24,FGIEIEVTDINDNAKKFQAENLDV [P15K],3.51

row,Variant,protein stability index
1,FGIEIEVTDINDNAPKFNAENLDV [Q18N],3.25
2,FGIEIEVTDINDNAPKFLAENLDV [Q18L],2.26
3,FGIEIEVTDINDNAPKFYAENLDV [Q18Y],1.53
4,FGIEIEVTDINDNAPKFRAENLDV [Q18R],2.08
5,FGIEIEVTDINDNAPKFDAENLDV [Q18D],3.56
6,FGIEIEVTDINDNAPKFFAENLDV [Q18F],1.68
7,FGIEIEVTDINDNAPKFHAENLDV [Q18H],2.93
8,FGIEIEVTDINDNAPKFIAENLDV [Q18I],2.13
9,FGIEIEVTDINDNAPKFVAENLDV [Q18V],2.54
10,FGIEIEVTDINDNAPKFQAENADV [L22A],3.34
11,FGIEIEVTDINDNAPKFQAENPDV [L22P],3.36
12,FGIEIEVTDINDNAPKFQAENVDV [L22V],3.42
13,FGIEIEVTDINDNAPKFQAENNDV [L22N],3.69
14,FGIEIEVTDINDNAPKFQAENTDV [L22T],3.65
15,FGIEIEVTDINDNAPKFQAENEDV [L22E],4.39
16,FGIEIEVTDQNDNAPKFQAENLDV [I10Q],4.05
17,FGIEIEVTDHNDNAPKFQAENLDV [I10H],4.04
18,FGIEIEVTDTNDNAPKFQAENLDV [I10T],3.28
19,FGIEIEVTDYNDNAPKFQAENLDV [I10Y],2.81
20,FGIEIEVTDANDNAPKFQAENLDV [I10A],3.61
21,FGIEIEVTDINDNAPKFQAENLKV [D23K],2.08
22,FGIEIEVTDINDNAPKFQAENLMV [D23M],2.52
23,FGIEIEVTDINDNAPKFQAENLAV [D23A],2.3
24,FGIEIEVTDINDNAPKFQAENLSV [D23S],2.06

row,Variant,protein stability index
1,FGIEIEVTDINDNAPKFQAENLNV [D23N],2.85
2,FGIEIEVTDINDNAPKFQAENLQV [D23Q],2.42
3,FGIEIEVTDINDNAPKFQAENLFV [D23F],1.55
4,FGIEIEVTDINDNAPKFQAENLRV [D23R],1.93
5,FGIEIEVTDINDNAPKFQAENLLV [D23L],2.17
6,FGIEIEVTDINDNAPKFQAENLGV [D23G],2.29
7,FGIEIEVTDINDNAPKFQAENLVV [D23V],2.56
8,FGGEIEVTDINDNAPKFQAENLDV [I3G],4.73
9,FGSEIEVTDINDNAPKFQAENLDV [I3S],5.2
10,FGHEIEVTDINDNAPKFQAENLDV [I3H],4.88
11,FGWEIEVTDINDNAPKFQAENLDV [I3W],3.62
12,FGQEIEVTDINDNAPKFQAENLDV [I3Q],4.79
13,FGREIEVTDINDNAPKFQAENLDV [I3R],4.52
14,FGIEIEVTDINDIAPKFQAENLDV [N13I],2.66
15,FGIEIEVTDINDKAPKFQAENLDV [N13K],3.12
16,FGIEIEVTDINDVAPKFQAENLDV [N13V],2.27
17,FGIEIEVTDINDEAPKFQAENLDV [N13E],3.35
18,FGIEIEVTDINDWAPKFQAENLDV [N13W],1.54
19,FGIEIEVTDINDAAPKFQAENLDV [N13A],2.85
20,FGIEIEVTDINDSAPKFQAENLDV [N13S],2.48
21,FGIEIEVTDINDGAPKFQAENLDV [N13G],2.99
22,FGIEIEVTDINDFAPKFQAENLDV [N13F],1.84
